According to paper PMC11445749, “Structural bases for blockade and activation of BK channels by Ba^2+ ions” (Frontiers in Molecular Biosciences, 2024):

Molecular target: the molecule itself
Assay: cryo-EM structure; Slo1 tetramers in lipid nanodiscs (MSP1E3D1); two samples: Low-Barium (~1.4 mM Ba2+, PDB 7RK6) and High-Barium (10 mM Ba2+ throughout purification, PDB 7RJT); Titan Krios, K2 detector

B1: Aplysia californica Slo1 BK channel (natural protein)
chain: not shown
notes: Homotetramer in lipid nanodiscs (scaffold MSP1E3D1); also called Aplysia Slo1; Aplysia BK channel; not shown: GFP, C-terminal, cleaved; rho-1D4, C-terminal, cleaved
stoichiometry N: 4
